From patent US20260274985A1 (MYTHIC THERAPEUTICS, published 2026)
Numbering of substitutions follows the chain as printed.

Columns and labels:
[1] = target: T1, Human TROP2 Protein, His Tag (Acro Biosystems) (human, UniProt P09758 27-274); test: BLI (Octet)
T1 construct: Bought protein; not shown: His tag
T1 sequence (looked up): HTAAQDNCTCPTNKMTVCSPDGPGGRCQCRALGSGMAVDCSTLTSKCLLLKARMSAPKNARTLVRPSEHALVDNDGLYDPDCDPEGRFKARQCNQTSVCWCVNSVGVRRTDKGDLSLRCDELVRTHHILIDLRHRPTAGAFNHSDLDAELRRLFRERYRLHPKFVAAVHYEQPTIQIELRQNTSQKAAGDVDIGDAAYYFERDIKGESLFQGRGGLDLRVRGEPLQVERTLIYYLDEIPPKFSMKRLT
Protocol: After allowing for four days of protein expression, cell culture supernatants were collected, quantified by SDS-PAGE analysis (DNS), and the pH dependence of the variant was evaluated using biolayer interferometry (BLI) on an Octet RED 96e instrument. Briefly, cell culture supernatants were diluted based on qualitative expression level of the variant determined by visual examination of SDS-PAGE gels, 5 μL of cell culture supernatant was diluted into 195 μL of 1×PBST, pH 7.4 for high expressors, 25 μL of cell culture supernatant was diluted into 175 μL of 1×PBST, pH 7.4 for medium expressors and 100 μL of cell culture supernatant was diluted into 100 μL of 1×PBST, pH 7.4 for low expressors for loading onto the sensor tips. The resulting diluted supernatants were then captured on an anti-human Fc sensor (Forte Bio). A baseline was established using 1×PBST (50 mM Potassium Phosphate Buffer+150 mM NaCl+0.05% Tween 20) pH 7.4, and the sensor was associated with 50 nM of TROP2 (Human TROP2 Protein, His Tag, Acro Biosystems) in 1×PBST pH 7.4 for 120 sec to generate an association curve. In the dissociation phase, the antibody-antigen complex on the sensor was exposed to 1×PBST pH 7.4 or pH 5.4, for 300 sec. Association and dissociation phase curves were examined for the starting ABPC antibody (with no substitutions) and each corresponding antibody variant at pH 5.4 and pH 7.4 to inform on two criteria: a) enhanced dissociation (i.e., higher koff values) at pH 5.4 due to histidine or alanine substitution compared to the starting ABPC, (with no substitutions), and b) reduced dissociation at pH 7.4 (i.e., lower koff values) compared to pH 5.4 in the antibody variant itself and with the starting ABPC (with no substitutions). […] It was also noted that while some mutations obliterated TROP2 binding, others were tolerated with little or n change in TROP2 binding kinetics.

[2] = target: T2, Human TROP2 Protein, His Tag (Acro Biosystems) (human, UniProt P09758 27-274); test: Octet (BLI); antigen and pH not given
T2 construct: not shown: His tag
T2 sequence (looked up): T1 sequence (looked up)

B1: MYT11567 (antibody, V domains shown)
VH: QVQLQQSGSELKKPGASVKVSCKASHYTFTNYGMNWVKQAPGQGLKWMGWINTYTGEPTYTDDFKGRFAFSLDTSVSTAYLQISSLKADDTAVYFCARGGFGSSYWYFDVWGQGSLVTVSS
VL: DIQLTQSPSSLSASVGDRVSITCKASQDVSIAVAWYQQKPGKAPKLLIYSASYRYTGVPDRFSGSGSGTDFTLTISSLQPEDFAVYYCQQHYITPLTFGAGTKVEIK
notes: Sacituzumab variant, His at HCV position 26 (H1 01)
- binding result [1]: binds

B2: MYT11588 (antibody, V domains shown)
VH: B1 VH with H26G, T61H
VL: B1 VL
notes: Sacituzumab variant, His at HCV position 61 (H2 12)
- binding result [1]: binds

B3: MYT11581 (antibody, V domains shown)
VH: B1 VH with H26G, Y54H
VL: B1 VL
notes: Sacituzumab variant, His at HCV position 54 (H2 05)
- binding result [1]: binds

B4: MYT13424 (antibody, V domains shown)
VH: B1 VH with H26G, Y60H
VL: B1 VL with S30H, A51H, I93H
notes: IgG; also called Sacituzumab HC-LC pairing variant
- Kd [2]: 1.97 nM
- Octet response at 33.33 nM (Y-Axis) nm [2]: 0.123 nm

B5: MYT11582 (antibody, V domains shown)
VH: B1 VH with H26G, T55H
VL: B1 VL
notes: Sacituzumab variant, His at HCV position 55 (H2 06)
- binding result [1]: binds

B6: MYT11575 (antibody, V domains shown)
VH: B1 VH with H26G, M34H
VL: B1 VL
notes: Sacituzumab variant, His at HCV position 34 (H1 09)
- binding result [1]: binds

B7: MYT13433 (antibody, V domains shown)
VH: B1 VH with H26G, D62H
VL: B1 VL with A51H, Y53H, I93H
notes: as for B4
- Kd [2]: 4.36 nM
- Octet response at 33.33 nM (Y-Axis) nm [2]: 0.12 nm

B8: MYT11570 (antibody, V domains shown)
VH: B1 VH with H26G, F29H
VL: B1 VL
notes: Sacituzumab variant, His at HCV position 29 (H1 04)
- binding result [1]: binds

B9: MYT11598 (antibody, V domains shown)
VH: B1 VH with H26G, F101H
VL: B1 VL
notes: Sacituzumab variant, His at HCV position 101 (H3 05)
- binding result [1]: binds

B10: MYT11585 (antibody, V domains shown)
VH: B1 VH with H26G, P58H
VL: B1 VL
notes: Sacituzumab variant, His at HCV position 58 (H2 09)
- binding result [1]: binds

B11: MYT11586 (antibody, V domains shown)
VH: B1 VH with H26G, T59H
VL: B1 VL
notes: Sacituzumab variant, His at HCV position 59 (H2 10)
- binding result [1]: binds

B12: MYT11572 (antibody, V domains shown)
VH: B1 VH with H26G, N31H
VL: B1 VL
notes: Sacituzumab variant, His at HCV position 31 (H1 06)
- binding result [1]: binds

B13: MYT13426 (antibody, V domains shown)
VH: B1 VH with H26G, D63H
VL: B1 VL with S30H, A51H, I93H
notes: as for B4
- Kd [2]: 1.51 nM
- Octet response at 33.33 nM (Y-Axis) nm [2]: 0.132 nm

B14: MYT11576 (antibody, V domains shown)
VH: B1 VH with H26G, N35H
VL: B1 VL
notes: Sacituzumab variant, His at HCV position 35 (H1 10)
- binding result [1]: binds

B15: MYT13368 (antibody, V domains shown)
VH: B1 VH with H26G, Y60H
VL: B1 VL with S30H, V33H
notes: as for B4
- Kd [2]: 1.03 nM
- Octet response at 33.33 nM (Y-Axis) nm [2]: 0.14 nm

B16: MYT11592 (antibody, V domains shown)
VH: B1 VH with H26G, K65H
VL: B1 VL
- binding result [1]: binds

B17: MYT11590 (antibody, V domains shown)
VH: B1 VH with H26G, D63H
VL: B1 VL
notes: Sacituzumab variant, His at HCV position 63 (H2 14)
- binding result [1]: binds

B18: MYT11580 (antibody, V domains shown)
VH: B1 VH with H26G, T53H
VL: B1 VL
notes: Sacituzumab variant, His at HCV position 53 (H2 04)
- binding result [1]: binds

B19: MYT11591 (antibody, V domains shown)
VH: B1 VH with H26G, F64H
VL: B1 VL
notes: Sacituzumab variant, His at HCV position 64 (H2 15)
- binding result [1]: binds

B20: MYT11573 (antibody, V domains shown)
VH: B1 VH with H26G, Y32H
VL: B1 VL
- binding result [1]: binds

B21: MYT11594 (antibody, V domains shown)
VH: B1 VH with H26G, A97H
VL: B1 VL
notes: Sacituzumab variant, His at HCV position 97 (H3 01)
- binding result [1]: binds

B22: MYT11601 (antibody, V domains shown)
VH: B1 VH with H26G, S104H
VL: B1 VL
notes: Sacituzumab variant, His at HCV position 104 (H3 08)
- binding result [1]: binds

B23: MYT11589 (antibody, V domains shown)
VH: B1 VH with H26G, D62H
VL: B1 VL
- binding result [1]: binds

B24: MYT11584 (antibody, V domains shown)
VH: B1 VH with H26G, E57H
VL: B1 VL
notes: Sacituzumab variant, His at HCV position 57 (H2 08)
- binding result [1]: binds

B25: MYT11579 (antibody, V domains shown)
VH: B1 VH with H26G, N52H
VL: B1 VL
notes: Sacituzumab variant, His at HCV position 52 (H2 03)
- binding result [1]: binds

B26: MYT13429 (antibody, V domains shown)
VH: B1 VH with H26G, G66H
VL: B1 VL with S30H, A51H, I93H
notes: as for B4
- Kd [2]: 2.85 nM
- Octet response at 33.33 nM (Y-Axis) nm [2]: 0.122 nm

B27: MYT11602 (antibody, V domains shown)
VH: B1 VH with H26G, Y105H
VL: B1 VL
- binding result [1]: binds

B28: MYT11587 (antibody, V domains shown)
VH: B1 VH with H26G, Y60H
VL: B1 VL
- binding result [1]: binds

B29: MYT11568 (antibody, V domains shown)
VH: B1 VH with H26G, Y27H
VL: B1 VL
notes: Sacituzumab variant, His at HCV position 27 (H1 02)
- binding result [1]: binds

B30: MYT11571 (antibody, V domains shown)
VH: B1 VH with H26G, T30H
VL: B1 VL
notes: Sacituzumab variant, His at HCV position 30 (H1 05)
- binding result [1]: binds

B31: MYT11593 (antibody, V domains shown)
VH: B1 VH with H26G, G66H
VL: B1 VL
- binding result [1]: binds

B32: MYT11574 (antibody, V domains shown)
VH: B1 VH with H26G, G33H
VL: B1 VL
- binding result [1]: binds

B33: MYT11578 (antibody, V domains shown)
VH: B1 VH with H26G, I51H
VL: B1 VL
notes: Sacituzumab variant, His at HCV position 51 (H2 02)
- binding result [1]: binds

B34: MYT11595 (antibody, V domains shown)
VH: B1 VH with H26G, R98H
VL: B1 VL
notes: Sacituzumab variant, His at HCV position 98 (H3 02)
- binding result [1]: binds

B35: MYT11596 (antibody, V domains shown)
VH: B1 VH with H26G, G99H
VL: B1 VL
- binding result [1]: binds

B36: MYT11569 (antibody, V domains shown)
VH: B1 VH with H26G, T28H
VL: B1 VL
notes: Sacituzumab variant, His at HCV position 28 (H1 03)
- binding result [1]: binds

B37: MYT11577 (antibody, V domains shown)
VH: B1 VH with H26G, W50H
VL: B1 VL
- binding result [1]: binds
